Experimental data published in paper PMC3944691, “Crystallization and preliminary X-ray diffraction analysis of the amidase domain of allophanate hydrolase from Pseudomonas sp. strain ADP” (Acta Crystallographica. Section F, Structural Biology …, 2014).

B1: C-terminally truncated AtzF (AtzF467), first 467 amino acids of AtzF, N-terminally histidine-tagged (domain or fragment, Pseudomonas sp. strain ADP)
chain: MNDRAPHPERSGRVTPDHLTDLASYQAAYAAGTDAADVISDLYARIKEDGENPIWISLLPLESALAMLADAQQRKDKGEALPLFGIPFGVKDNIDVAGLPTTAGCTGFARTPRQHAFVVQRLVDAGAIPIGKTNLDQFATGLNGTRTPFGIPRCVFNENYVSGGSSSGSAVAVANGTVPFSLGTDTAGSGRIPAAFNNLVGLKPTKGLFSGSGLVPAARSLDCISVLAHTVDDALAVARVAAGYDADDAFSRKAGAAALTEKSWPRRFNFGVPAAEHRQFFGDAEAEALFNKAVRKLEEMGGTCISFDYTPFRQAAELLYAGPWVAERLAAIESLADEHPEVLHPVVRDIILSAKRMSAVDTFNGIYRLADLVRAAESTWEKIDVMLLPTAPTIYTVEDMLADPVRLNSNLGFYTNFVNLMDLSAIAVPAGFRTNGLPFGVTFIGRAFEDGAIASLGKAFVEHDLAK
notes: Allophanate hydrolase AtzF, Pseudomonas sp. strain ADP, first 467 amino acids (ends at Lys467), amidase domain; also called amidase domain of allophanate hydrolase; source: E. coli BL21 (λDE3), purified (Ni-NTA, Superdex 200 size exclusion); not shown: His6, N-terminal, kept

Legend:
[1] = molecular target: Allophanate hydrolase (AtzF) from Pseudomonas sp. strain ADP, His-tagged full-length (Pseudomonas sp. strain ADP); assay: SEC; purified full-length AtzF on Superdex 200 prep-grade, 50 mM HEPES, 100 mM NaCl pH 7.5; oligomeric state from apparent size (~360 kDa)
[2] = molecular target: the molecule itself; assay: SEC; purified AtzF467 on Superdex 200 prep-grade, 50 mM Tris, 100 mM NaCl pH 7.5; oligomeric state from apparent size (~110 kDa); data not shown

Molecule | stoichiometry N [1] | stoichiometry N [2]
Allophanate hydrolase (AtzF) from Pseudomonas sp. strain ADP, His-tagged full-length (enzyme) | 6 | 
B1 |  | 2
